In patent US20240358731A1, “SUMO PATHWAY AS AN OXYGEN SENSOR RELEVANT TO THE PATHOPHYSIOLOGY OF PULMONARY ARTERY HYPERTENSION AND CARDIAC ARRHYTHMIA” (Northeastern University, priority 2023, published 2024):
Several values for one entry are separate records, joined by “and”; a condition that tells them apart may be missing. Equal entries are not always repeated.

T1: Kir2.4 (Homo sapiens, UniProt Q9UNX9)
T1 sequence (Q9UNX9 1-436): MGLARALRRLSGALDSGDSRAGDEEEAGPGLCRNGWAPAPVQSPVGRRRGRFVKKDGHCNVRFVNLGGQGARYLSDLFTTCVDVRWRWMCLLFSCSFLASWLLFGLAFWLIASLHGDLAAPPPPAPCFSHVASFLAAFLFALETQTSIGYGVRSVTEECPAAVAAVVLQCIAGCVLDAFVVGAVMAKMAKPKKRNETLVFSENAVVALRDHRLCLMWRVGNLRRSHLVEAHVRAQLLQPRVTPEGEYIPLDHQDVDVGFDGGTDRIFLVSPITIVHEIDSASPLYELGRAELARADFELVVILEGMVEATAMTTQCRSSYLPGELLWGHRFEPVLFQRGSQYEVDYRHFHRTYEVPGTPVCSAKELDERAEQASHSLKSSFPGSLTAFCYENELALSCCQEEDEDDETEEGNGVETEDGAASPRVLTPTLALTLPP

T2: Kir2.3 (Homo sapiens, UniProt P48050)
T2 construct: expressed in transfected cells; host or cells: Xenopus oocytes
T2 sequence (P48050 1-445): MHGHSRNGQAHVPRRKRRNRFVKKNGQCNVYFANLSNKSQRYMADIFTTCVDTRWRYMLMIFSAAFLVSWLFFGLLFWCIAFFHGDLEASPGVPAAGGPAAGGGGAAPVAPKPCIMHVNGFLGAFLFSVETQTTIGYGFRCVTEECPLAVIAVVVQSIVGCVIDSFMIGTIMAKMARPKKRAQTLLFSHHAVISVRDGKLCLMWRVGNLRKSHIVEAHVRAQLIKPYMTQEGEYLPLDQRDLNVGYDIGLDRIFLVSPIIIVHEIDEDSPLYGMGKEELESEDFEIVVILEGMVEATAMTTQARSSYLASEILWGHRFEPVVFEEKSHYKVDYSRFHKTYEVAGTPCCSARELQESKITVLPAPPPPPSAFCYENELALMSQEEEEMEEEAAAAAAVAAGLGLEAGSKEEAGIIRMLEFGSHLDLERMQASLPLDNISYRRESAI


Legend:
Kir2.4 = target: T1, Kir2.4; test: Whole-cell patch-clamp of Kir2.4 in HEK293 cells with SUMO1 or SENP1 in the recording pipette; assay type: cell-based; design: expressed in transfected cells
Description: Currents were measured at −80 mV in 140 mM external K+.
Similarly, currents were no longer enhanced by SENP1.
SUMOylation regulates Kir2.4 channels in mammalian cells. Next, we tested if SUMO could regulate Kir2.4 channels in mammalian cells. Kir2.4 channels were transiently expressed in HEK293 cells and studied in whole-cell mode with 140 mM bath [K]^+, using a ramp protocol from −80 to +80 mV. Purified SUMO1 or SENP1 peptide were introduced via the recording pipette. At 1 nM, SUMO1, but not heat-denatured SUMO1, inhibited Kir2.4 currents by ˜40 and 60%, respectively, within one-minute of breakthrough. In contrast, 1 nM SENP1 increased the current by ˜50% (FIG. 7).
The PIP2-dependence of SUMO-regulation. Using the 5-ptaseOCRL system, we depleted PIP2 in HEK293 cells expressing Kir2.4 and studied currents with 1 nM SUMO1, or SENP1 in the recording pipette. When currents were recorded after 5-min activation of the optogenetic probe, 5-ptaseOCRL, the inhibitory effect of 1 nM SUMO1 on Kir2.4 was reduced from ˜40% to ˜7% (FIG. 9). Current augmentation observed with SENP1 in the pipette was reduced from […] to ˜6%. These preliminary data support the conclusion that SUMO-regulation of Kir2.4 channels is PIP2-dependent.

Kir2.3 = target: T2, Kir2.3; test: Two-electrode voltage-clamp of Kir2.3 currents in Xenopus oocytes; assay type: cell-based; conditions: co-expression
Source text: FIG. 5A discloses SEQ ID NOS 6-9, respectively, in order of appearance. […] SENP1 increases the current. […] SUMO sensitivity is transferred to Kir2.3 when the site in Kir2.1 is recreated by mutagenesis (Kir2.3-N25D).
Co-expressed SUMO decreases Kir2.4 currents in Xenopus oocytes. Using the SUMOplot algorithm to assess potential SUMOylation sites based on the canonical motif ψ-K-X-E/D, we identified the high probability SUMO site V-K54-K-D (SEQ ID NO: 4) in the N-terminal sequence of Kir2.4. SUMO covalently modifies Kir2.4 at K54 (FIG. 5) and tested the idea using two-electrode voltage-clamp (TEVC), a sensitive assay to study the regulation of Kir channels. Kir2.4 currents, assessed at −80 mV in a high K^+ (96 mM) bath solution, decreased in a dose-dependent manner with co-expression of SUMO1 (FIG. 5). Co-injection of 5 ng of human SUMO1 RNA decreased Kir2.4 currents by ˜50%. In contrast, expression of SENP1 increased Kir2.4 by ˜50%. […] The analogous sequence in Kir2.2 and Kir2.3 is V-K-K-N(SEQ ID NO: 5), which lacks the terminal aspartic acid, reduced the probability of SUMOylation from 0.93 to 0.31. Consistent with this, Kir2.3 currents were insensitive to SUMO1 and SENP1. […] This last result is consistent with a protein-protein interaction between the channel and SUMO1.

| Molecule | inhibition of Kir2.4 currents after PIP2 depletion (Kir2.4; 1 nM SUMO1, after 5-min activation of 5-ptaseOCRL) | inhibition of Kir2.4 currents (Kir2.4; 1 nM in pipette, 140 mM bath K+, within one-minute of breakthrough) | sensitivity of Kir2.3 currents (Kir2.3) | increase of Kir2.4 current (Kir2.4; 1 nM SENP1 in pipette) | Kir2.4 current augmentation after PIP2 depletion (Kir2.4; 1 nM SENP1 in pipette, after 5-min activation of 5-ptaseOCRL) |
| --- | --- | --- | --- | --- | --- |
| SUMO1: purified SUMO1 (small ubiquitin-related modifier) protein introduced via the recording pipette or co-expressed | ~7% | ~40% and ~60% | insensitive |  |  |
| SENP1: purified deSUMOylating enzyme (SUMO specific protease) introduced via the recording pipette or expressed (protein, UniProt Q9P0U3 1-644, looked up) Sentrin-specific protease 1: MDDIADRMRMDAGEVTLVNHNSVFKTHLLPQTGFPEDQLSLSDQQILSSRQGHLDRSFTCSTRSAAYNPSYYSDNPSSDSFLGSGDLRTFGQSANGQWRNSTPSSSSSLQKSRNSRSLYLETRKTSSGLSNSFAGKSNHHCHVSAYEKSFPIKPVPSPSWSGSCRRSLLSPKKTQRRHVSTAEETVQEEEREIYRQLLQMVTGKQFTIAKPTTHFPLHLSRCLSSSKNTLKDSLFKNGNSCASQIIGSDTSSSGSASILTNQEQLSHSVYSLSSYTPDVAFGSKDSGTLHHPHHHHSVPHQPDNLAASNTQSEGSDSVILLKVKDSQTPTPSSTFFQAELWIKELTSVYDSRARERLRQIEEQKALALQLQNQRLQEREHSVHDSVELHLRVPLEKEIPVTVVQETQKKGHKLTDSEDEFPEITEEMEKEIKNVFRNGNQDEVLSEAFRLTITRKDIQTLNHLNWLNDEIINFYMNMLMERSKEKGLPSVHAFNTFFFTKLKTAGYQAVKRWTKKVDVFSVDILLVPIHLGVHWCLAVVDFRKKNITYYDSMGGINNEACRILLQYLKQESIDKKRKEFDTNGWQLFSKKSQEIPQQMNGSDCGMFACKYADCITKDRPINFTQQHMPYFRKRMVWEILHRKLL |  |  | insensitive | ~50% and ~40% | ~6% |
